# Measurements from patent US20260218204, “APTAMERS SPECIFIC FOR TLR-4 AND USES THEREOF” (Merck Patent GmbH, published 2026).
# Target: TLR-4 extracellular domain (Homo sapiens, UniProt O00206 O00206:24-631)
# Assay: ELONA; 200 nM aptamer, 20 mM Tris pH 7.4, 1 mM MgCl2, 150 mM NaCl, 5 mM KCl, 37 C; among the most efficient binders
# Conditions: tags: C-terminal 6xHis, expressed in baculovirus; label: 5' digoxigenin (ELONA); predicted G4
# Method: It was determined if the selected aptamers recognized the TLR-4 protein. To that end, 100 ng/well of 6×HIS-recombinant TLR-4 were added to a 96-well microtiter plate and were incubated at 4° C. for 16 h. Subsequently, individual aptamers labeled with digoxigenin in the 5′ end were diluted at a concentration of 5 μg/mL and then denatured for 10 min at 95° C. and cooled for 10 min on ice. Then, 20 pmol of each of the aptamers in 100 μl (200 nM) of aptamer buffer were added to each well and the plate was incubated for 1 h at 37° C. Finally, the plate was incubated with peroxidase-conjugated anti-digoxigenin antibodies and developed using ABTS. An anti-Li H2A DNA aptamer was used as a positive control (Martin et al., 2013, PLoS ONE 8: e78886).
# By means of the same type of assay, aptamers TLRApt#2F and TLRApt#3R were identified.
# Chain of TLR-4 extracellular domain (O00206 24-631, one chain of several): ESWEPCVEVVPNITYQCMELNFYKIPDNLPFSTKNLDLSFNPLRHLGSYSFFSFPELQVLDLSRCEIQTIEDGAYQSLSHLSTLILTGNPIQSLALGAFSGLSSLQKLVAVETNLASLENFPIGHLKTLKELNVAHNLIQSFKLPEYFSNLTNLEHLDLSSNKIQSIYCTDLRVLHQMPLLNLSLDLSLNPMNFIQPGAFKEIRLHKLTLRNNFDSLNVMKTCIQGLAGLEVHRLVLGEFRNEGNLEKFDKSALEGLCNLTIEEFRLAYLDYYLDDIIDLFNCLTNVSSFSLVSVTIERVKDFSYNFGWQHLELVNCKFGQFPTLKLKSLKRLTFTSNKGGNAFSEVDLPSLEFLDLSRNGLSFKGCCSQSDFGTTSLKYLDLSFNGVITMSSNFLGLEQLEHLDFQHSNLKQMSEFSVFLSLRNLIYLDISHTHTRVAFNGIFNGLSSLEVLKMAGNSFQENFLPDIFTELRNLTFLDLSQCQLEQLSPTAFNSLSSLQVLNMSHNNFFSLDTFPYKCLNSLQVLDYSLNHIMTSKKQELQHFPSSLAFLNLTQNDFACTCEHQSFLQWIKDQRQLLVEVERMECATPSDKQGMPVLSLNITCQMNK
binder,measurement,value
TLRApt#4F (ssDNA) DNA: GCGGATGAAGACTGGTGTGCCAATAAACCATATCGCCGCGTTAGCATGTACTCGGTTGGCCCTAAATACGAGCAAC,binding result,binds
TLRApt#1R (ssDNA) DNA: GTTGCTCGTATTTAGGGCCACCGGCACGGGACAAGGCGCGGGACGGCGTAGATCAGGTCGACACCAGTCTTCATCCGC,binding result,binds
